Positions count from the first letter of the chain named.
Legend:
[1] = biological target: T1, human CD3εγ-Fc heterodimer (human); test: SPR (Biacore T200), antigen amine-coupled on CM5 chip, antibody as analyte, 1:1 model
T1 construct: also called human CD3εγ recombinant protein; human CD3εγ protein
T1 chain 1: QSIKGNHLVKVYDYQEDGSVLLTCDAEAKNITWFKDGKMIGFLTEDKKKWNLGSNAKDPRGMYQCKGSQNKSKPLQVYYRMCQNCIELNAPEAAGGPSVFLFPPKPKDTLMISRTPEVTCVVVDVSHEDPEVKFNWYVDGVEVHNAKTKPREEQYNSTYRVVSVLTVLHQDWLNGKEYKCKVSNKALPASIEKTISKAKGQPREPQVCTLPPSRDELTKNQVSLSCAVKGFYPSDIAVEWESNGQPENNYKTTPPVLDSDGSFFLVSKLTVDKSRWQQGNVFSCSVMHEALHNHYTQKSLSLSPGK
T1 chain 2: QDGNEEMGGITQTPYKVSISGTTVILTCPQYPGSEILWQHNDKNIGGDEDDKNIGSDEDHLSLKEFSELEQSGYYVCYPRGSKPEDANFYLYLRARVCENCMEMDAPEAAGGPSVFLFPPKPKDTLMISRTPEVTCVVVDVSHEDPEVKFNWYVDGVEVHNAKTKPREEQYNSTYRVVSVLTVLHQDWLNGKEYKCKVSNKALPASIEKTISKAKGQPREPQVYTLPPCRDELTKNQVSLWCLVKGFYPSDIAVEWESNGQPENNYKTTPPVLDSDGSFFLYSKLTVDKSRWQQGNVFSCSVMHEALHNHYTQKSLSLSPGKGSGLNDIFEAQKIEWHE
Procedure: 10 μg/mL human or cynomolgus monkey BCMA or CD3εγ recombinant antigen was bound to a CM5 chip (GE healthcare) by amino conjugating, while the amount of antigen bound was controlled to approximately 200 RU. After baseline plateau, gradient diluted antibodies (7 gradients of 2-fold dilutions from 10 μg/mL) were flowed through the chip at a flow rate of 30 μL/min for a binding time of 350 seconds and a dissociation time of 600 seconds. Kinetic constants were fitted using Biacore T200 evaluation software with a 1:1 binding model.

[2] = biological target: T2, human CD3 on T cells (Jurkat cells; human peripheral blood CD4+ and CD8+ T-cells) (human, UniProt P07766 23-207); test: flow cytometry on human peripheral blood CD4+ T-cells
T2 construct: whole, on cells; also called CD4T; CD4 + T
Procedure: Fresh human peripheral blood was taken and PBMC was isolated by Ficoll. Paque Plu (GE, 17-1440-03). PBMC was adjusted to 5×10⁵ cells/mL with 4% calf serum (Hyclone, SH30626.06), 100 μL/well was added to a 96-well U-plate, the supernatant was centrifuged off and 100 μL of gradient diluted antibody (with starting concentration of 1800 nM, 3-fold dilution, 10 gradients) was added to each well and incubated for 60 min at 4° C. 50 μL/well of Alexa Fluro647 labeled goat anti-human IgG Fc (1:300 dilution) was added to the secondary antibody, with ice bath for 20 min, and 50 μL/well PI added after washing once, incubated for 5 min, and flow cytometer (BD C6) was used for detection. The control antibody REGN5458 was synthesized and prepared according to US20200024356.

[3] = biological target: T2, human CD3 on T cells (Jurkat cells; …); test: flow cytometry on Jurkat cells
Procedure: Jurkat cells in logarithmic growth phase were blocked with 3% BSA for 30 min, added to 96-well U-plate at 5×10^4 cells per well, centrifuged to discard the supernatant, and added with 50 μL of gradient diluted antibody (antibody concentration:from 30 μg/mL, with 3-fold dilution for 5 gradients) per well, and incubated at 4° C. for 1 hour. After washing off the primary antibody, a 1:300 dilution of Alexa Fluro647 labeled goat anti-human IgG Fc (Jackson ImmunoResearch, 109-606-170) was added to the secondary antibody, incubated for 45 min at 4° C., and, after washing, resuspended in 50 μL of PBS per well for FACS (iQue, intellicyt) detection.

[4] = biological target: T1, human CD3εγ-Fc heterodimer; test: ELISA, coated human CD3εγ recombinant protein
Procedure: Human CD3εγ recombinant protein was coated overnight at 4° C. After blocking with 2% skim milk, different dilutions of CD3 antibody were added to each well and incubated for 1 hour. After the secondary antibody was developed by adding HPR-labeled goat anti-human IgG Fc and TMB solution, the reaction was stopped with concentrated sulfuric acid and the absorbance was read at 450 nm.

B1: BCMA × CD3 κλ003 (bispecific antibody, human IgG4 S228P, kappa, lambda)
light 1: DIVLTQSPASLAVSPGQRATITCRASKSVSTSGYSYMHWYQKKPGQPPKLLIYLASNLESGVPARFSGSGSGTDFTLTINPVEAEDTANYYCQHSRELPWTFGQGTKVEIKRTVAAPSVFIFPPSDEQLKSGTASVVCLLNNFYPREAKVQWKVDNALQSGNSQESVTEQDSKDSTYSLSSTLTLSKADYEKHKVYACEVTHQGLSSPVTKSFNRGEC
heavy 1: QVQLVQSGSELKKPGASVKVSCKASGYIFTNFGMNWVREAPGQGLEWMGWINTYTGEQIYADGFTGRFVFSLDTSASTAYLQISSLKAEDTAVYFCARGEIYYGYDVGFVYWGQGTLVTVSSASTKGPSVFPLAPCSRSTSESTAALGCLVKDYFPEPVTVSWNSGALTSGVHTFPAVLQSSGLYSLSSVVTVPSSSLGTKTYTCNVDHKPSNTKVDKRVESKYGPPCPPCPAPEFEGGPSVFLFPPKPKDTLMISRTPEVTCVVVDVSQEDPEVQFNWYVDGVEVHNAKTKPREEQFNSTYRVVSVLTVLHQDWLNGKEYKCKVSNKGLASSIEKTISKAKGQPREPQVCTLPPSQEEMTKNQVSLSCAVKGFYPSDIAVEWESNGQPENNYKTTPPVLDSDGSFFLVSKLTVDKSRWQEGNVFSCSVMHEALHNHYTQKSLSLSLGK
light 2: QAVVTQEPSLTVSPGGTVTLTCRSSTGAVTTSNYANWVQEKPGQAPRGLIGGTNKRAPWTPARFSGSLLGGKAALTITGAQAEDEAEYYCVLWYSNLWVFGGGTKLTVLGQPKAAPSVTLFPPSSEELQANKATLVCLISDFYPGAVTVAWKADSSPVKAGVETTTPSKQSNNKYAASSYLSLTPEQWKSHRSYSCQVTHEGSTVEKTVAPTECS
heavy 2: EVQLVESGGGLVQPGGSLRLSCAASGFTFNTYAMNWVRKAPGKGLEWVGRIRSKYNNYATYYADSVKDRFTISRDDSKNSLYLQMNSLKTEDTAVYYCVRHGNFGNSYVSWFAYWGQGTLVTVSSASTKGPSVFPLAPCSRSTSESTAALGCLVKDYFPEPVTVSWNSGALTSGVHTFPAVLQSSGLYSLSSVVTVPSSSLGTKTYTCNVDHKPSNTKVDKRVESKYGPPCPPCPAPEFEGGPSVFLFPPKPKDTLMISRTPEVTCVVVDVSQEDPEVQFNWYVDGVEVHNAKTKPREEQFNSTYRVVSVLTVLHQDWLNGKEYKCKVSNKGLASSIEKTISKAKGQPREPQVYTLPPCQEEMTKNQVSLWCLVKGFYPSDIAVEWESNGQPENNYKTTPPVLDSDGSFFLYSKLTVDKSRWQEGNVFSCSVMHEALHNHYTQKSLSLSLGK
notes: also called BCMA×CD3 κλ bispecific antibody
Q: With B1 as the binder, how does the Kd [1] read?
A: 31 nM

Q: And the EC50 [2]?
A: 89 nM

B2: BCMA × CD3 κλ005 (bispecific antibody)
light 1: B1 light 1
heavy 1: B1 heavy 1 with A76V
light 2: B1 light 2
heavy 2: B1 heavy 2
notes: as for B1
Q: With B2 as the binder, how does the Kd [1] read?
A: 28 nM

B3: BCMA × CD3 κλ006 (bispecific antibody)
light 1: B1 light 1 with S30T, M37I, N57D, S60A
heavy 1: B1 heavy 1 with A76V
light 2: B1 light 2
heavy 2: B1 heavy 2
notes: as for B1
Q: How did the Kd [1] turn out when B3 was run?
A: 27 nM

B4: aCD3-hVH1/VL5 (antibody, human IgG4, V domains shown)
VH: EVQLVESGGGLVQPGGSLRLSCAASGFTFNTYAMNWVRQAPGKGLEWVSRIRSKYNNYATYYADSVKDRFTISRDDSKNTLYLQMNSLRAEDTAVYYCVRHGNFGNSYVSWFAYWGQGTLVTVSS
VL: QAVVTQEPSLTVSPGGTVTLTCRSSTGAVTTSNYANWVQEKPGQAPRGLIGGTNKRAPWTPARFSGSLLGGKAALTITGAQAEDEAEYYCVLWYSNLWVFGGGTKLTVL
notes: also called humanized anti-CD3 antibody hVH1/VL5
Q: For B4, which “affinity (FACS)” value [3] is on record?
A: 10 nM

Q: And the “affinity (ELISA)” value [4]?
A: 0.6 nM

B5: aCD3-hVH9/VL3 (antibody, human IgG4, V domains shown)
VH: B4 VH with Q39K, S49G, T80S, R89K, A90T
VL: B4 VL with Q1E, R23E, T26D, R56E, I77L, T78S, A82P, V91A
notes: also called humanized anti-CD3 antibody hVH9/VL3
Q: How did the “affinity (ELISA)” value [4] turn out when B5 was run?
A: 0.7 nM

B6: aCD3-hVH8/VL5 (antibody, human IgG4, V domains shown)
VH: B4 VH with Q39K, S49G, T80S, R89K, A90T, V99A
VL: B4 VL
notes: also called humanized anti-CD3 antibody hVH8/VL5
Q: B6 was tested. Which “affinity (ELISA)” value [4] did it give?
A: 0.74 nM

B7: aCD3-hVH8/VL1 (antibody, human IgG4, V domains shown)
VH: B4 VH with Q39K, S49G, T80S, R89K, A90T, V99A
VL: B4 VL with E40Q, I77L, T78S, A82P, V91A
notes: also called humanized anti-CD3 antibody hVH8/VL1
Q: With B7 as the binder, how does the “affinity (FACS)” value [3] read?
A: 15 nM

Q: And the “affinity (ELISA)” value [4]?
A: 0.65 nM

B8: aCD3-hVH9/VL1 (antibody, human IgG4, V domains shown)
VH: B4 VH with Q39K, S49G, T80S, R89K, A90T
VL: B4 VL with E40Q, I77L, T78S, A82P, V91A
notes: also called humanized anti-CD3 antibody hVH9/VL1
Q: How did the “affinity (FACS)” value [3] turn out when B8 was run?
A: 7 nM

Q: And the “affinity (ELISA)” value [4]?
A: 0.49 nM

From US20250346685A1 (published 2025)
